Tests used:
purified protein [1] = substrate: O=P(O)(O)O[C@H]1O[C@H](CO)[C@@H](O)[C@H](O)[C@H]1O; experiment: purified protein; type: biochemical, Bacillus subtilis; conditions: 200 μM UTP, MgCl2 10 mg/ml (so in the source), 50 mM Tris pH 7.5, 500 mM NaCl, 5% glycerol, RT
purified protein [2] = substrate: O=c1ccn([C@@H]2O[C@H](COP(=O)(O)OP(=O)(O)OP(=O)(O)O)[C@@H](O)[C@H]2O)c(=O)[nH]1; experiment: purified protein; type: biochemical, Bacillus subtilis; conditions: 200 μM Glc-1-P, MgCl2 10 mg/ml (so in the source), 50 mM Tris pH 7.5, 500 mM NaCl, 5% glycerol, RT

Row | Protein | Km (purified protein [1]) [µM] | kcat (purified protein [1]) [s⁻¹] | Km (purified protein [2]) [µM] | kcat (purified protein [2]) [s⁻¹]
1 | YngB (Bacillus subtilis subsp. subtilis str. 168) (protein, full-length, C-terminal His-tag kept (pET28b-yngB-cHis), E. coli BL21(DE3); native (Met) protein in kinetics; dimer in crystal) MRKKVRKAVIPAAGLGTRFLPATKAQPKEMLPIVDKPAIQYIVEEAAESGIEDILIITGRNKRSIEDHFDRSAELEFNLREKGKTETLKEMQQIADLANIHYIRQKEPLGLGHAVLCAEHFIGDEPFAVLLGDDIMVSETPALRQLMDVYDVYGTEVVGVQSVLPEDVSKYGIINTSGSQGHVYEVNDLVEKPSPEEAPSEIAVMGRYVLNSSIFSVLKTIGRGAGNEIQLTDALREVCRKEPIHARLLEGNRYDIGDKLGCFKASTEIGLMRPEMRSQLLAYLEDVIKRETKEMLR | 42.1 ± 20.2 | 0.264 | 62.9 ± 13.8 | 0.293
2 | GtaB (Bacillus subtilis subsp. subtilis str. 168) (protein, full-length, C-terminal His-tag cleaved off with thrombin (pET28b-gtaB-cHis), E. coli BL21(DE3)) MKKVRKAIIPAAGLGTRFLPATKAMPKEMLPIVDKPTIQYIIEEAVEAGIEDIIIVTGKSKRAIEDHFDYSPELERNLEEKGKTELLEKVKKASNLADIHYIRQKEPKGLGHAVWCARNFIGDEPFAVLLGDDIVQAETPGLRQLMDEYEKTLSSIIGVQQVPEEETHRYGIIDPLTSEGRRYQVKNFVEKPPKGTAPSNLAILGRYVFTPEIFMYLEEQQVGAGGEIQLTDAIQKLNEIQRVFAYDFEGKRYDVGEKLGFITTTLEFAMQDKELRDQLVPFMEGLLNKEEI | 45.6 ± 3.24 | 1.06 | 49.5 ± 10.2 | 1.04

Reference: paper PMC7961091, “Bacillus subtilis YngB contributes to wall teichoic acid glucosylation and glycolipid formation during anaerobic growth” (The Journal of Biological Chemistry, 2021)
